Test: yeast display, Sf9 membrane polyspecificity reagent, FACS + sequencing; frameworks hold sequencing errors
Method in brief: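 Sorting gates, low and high (top ~1%), were placed on anti-HA fluorescence to track expression and on streptavidin fluorescence to track reagent binding. A clone's polyreactivity label is taken from the gate it came out of. The reagent was 10% biotinylated, detergent-solubilized Sf9 membrane, applied for 1 hour at 4 °C to galactose-induced yeast display cells.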

| Sequence | polyreactivity (PSR sort gate) |
| --- | --- |
| QVQLVESGGGLVQAGGSLRLSCAASGLIQPYYTMGWYRQAPGKERELVAAIRRTTGSTFYADSVKGRFTISRDNAKNTVYLQMNSLKPEETAVYYCNVRRTPYSHWTGGGMDYWGQGTQVTVSS | high polyreactivity |
| QVQLVESGGGLVQAGGSLRLSCAASGLISLYYAMGWYRQAPGKERELVARITGSGGDTYYADSVKGRFTISRDNAKNTVYLQMNSLKPEDTAVSYCAAPALDWGQGTQVTVSS | low polyreactivity |
| QVQLVESGGGLVQAGGSLRLSCAASGLISRINAMGWYRQAPGKERELVAAISSGGSTNYADSVKGRFTISRDNAKNTVYLQMNSLKPEDTAVYYCAAGYIRKYSAFRYNYWGQGTQVTVSS | high polyreactivity |
| QVQLVESGGGLVQAGGSLRLSCAASGLISRRNAMGWYRQAPGKERELVAAISTGSSTNYADSVKGRFTLSRDNAKNTVYLQMNSLKPEDSAVYYCAATQYWWSTLGIRDDYWGQGTQVTVSS | low polyreactivity |
| QVQLVESGGGLVQAGGSLRLSCAASGLLFGRNVMGWYRQGPGKERELVAAISWSGGRTYYADSVKGRFTISRDNAKNTVYLQMNSLKPEDTAVYYCAADDGPGFDYWGQGTQVTESS | high polyreactivity |
| QVQLVESGGGLVQAGGSLRLSCAASGLNFKLYAMGWYRQAPGKEREFVATITGIGGSTYYADSVKGRFTISRDNAKNTVYLQMNSLKPEVTAVYYCAGDAWFLPYNYWGQGTQVTVSS | low polyreactivity |
| QVQLVESGGGLVQAGGSLRLSCAASGLNFSGYAMGWYRQAPGKESEMVAAINSGTSTTYADSVKARFTISRDNAKNTVYLQMNSMKPDDTAVYSCSATLEGGWWATYGSDYWGRGTQVTVSS | low polyreactivity |
| QVQLVESGGGLVQAGGSLRLSCAASGLNFSHYTMGWYRQAPGKERELVAAITSSGGSTYYADSVKGRFTISRDNGKNTVYLQMNSLKPVDTAVYYCNKALTSKDYPVRTVERDYWGQGTQVTVSS | low polyreactivity |
| QVQLVESGGGLVQAGGSLRLSCAASGLNFTYNAMGWSRQAPGKESELVAAITRSGGSTYYADSVKGRFTISRDNAKNTVYLQMNSLKPEDTAVYYCAKDDSAYSKYGYWGQGTQVTVSS | low polyreactivity |
| QVQLVESGGGLVQAGGSLRLSCAASGLNFYSNAMGWYRQAPGKERELVARISTGGSTYADSVKGRFTISRDNAKNTVYLQMNSLKPEDTAVYYCAKLPPRGIDDEYWGQGSQVTVSS | low polyreactivity |
| QVQLVESGGGLVQAGGSLRLSCAASGLNLAQYVMGWYRQAPGKERELVAAITWRGGGTYYADSVKGRFTISRDNAKYTVYLQMNSLKPEDTAVYYCNAVLYDGYVYNPGSTDDVDYWGQGTLVTVSS | high polyreactivity |
| QVQLVESGGGLVQAGGSLRLSCAASGLSCYPYAMGWYRQAPGKEMELVAAITSGDSTYYADSVKGRFTISRDNAKNTVYLQMNSLKPVDTAVYYCAKPDWVEVVTDFEYWGQGTQVTVSS | low polyreactivity |
| QVQLVESGGGLVQAGGSLRLSCAASGLSSLRMLWDGIDRRLGKKGSWLPLITSGGDSTNYADSVKGRFTISRDIAKNTVYLQMNSLKPEDTAVYYCAADLDYPYGYWGQGTQVTVSS | low polyreactivity |
| QVQLVESGGGLVQAGGSLRLSCAASGLTCGKYAMGWYRQAPGKERELVAAINSSGGSTYYADSVKGRFTISRDNAKNTVYLQMNSLKPEDTAVYYCAVAVYRLIYFEYNYWGQGTQVTVSS | low polyreactivity |
| QVQLVESGGGLVQAGGSLRLSCAASGLTFAANAMGWYRQAPGKERELVAAITSSGGSTYYADSVKGRFTISRDNAKNTVYLQMNSLKPEDTAVYYCAARASRPRFGYWGQGTLVTVSS | high polyreactivity |
| QVQLVESGGGLVQAGGSLRLSCAASGLTFAFNVMGWYRQAPGKERELVAAISASGASTYYADSVKGRFTISRDTAKNTVYLQMNSLKPEDTAVYYCAALGYCFSYRYDYWGQGTQVTVSS | high polyreactivity |
| QVQLVESGGGLVQAGGSLRLSCAASGLTFAFYAMGWYRQAPGKEMELVARIRTSAITYYADSVKGSFTISRDNAKNTVYLQMNSLKPEDTAVYYCAAEEGRVFSGGYDYWGQGTQVTVSS | high polyreactivity |
| QVQLVESGGGLVQAGGSLRLSCAASGLTFAGNAMGWSRQAPGTERELVAAITWTGDRTYYADSVKGRFTISRDNAKNTVYLQMNCLKPEDTAVYYCAAQVRSLYSPGWYYYWGQGTQVTVSS | high polyreactivity |
| QVQLVESGGGLVQAGGSLRLSCAASGLTFAINTMGWYRPAPGTERELVAAITGSGGSTYYADSVKGRFTISRDNAKNTVYLQMNSLKPEDTAVYDCAAELLYVQGYAMDYWGQGTQVTVSS | low polyreactivity |
| QVQLVESGGGLVQAGGSLRLSCAASGLTFAKNAMGWYRQAPGKERELVAAITTGGSTYYADSVKGRFTISRDNAKNTVYLQMNSLKPEDTAVYYCAAQILVRHIPYYYWGQGTQVTVSS | high polyreactivity |
| QVQLVESGGGLVQAGGSLRLSCAASGLTFANYVMGWYRQAPGKERELVAAISGGGGSTHYADSVKGRFTISRDNAKNTVYLQMNSLKPEDTAVYYCNADKYSVYGEHPYDYWGQGTQVTVSS | low polyreactivity |
| QVQLVESGGGLVQAGGSLRLSCAASGLTFANYVMGWYRQAPGKEREMVAAISRSGGSTYYADSVKGRFTISRDNAKYTVYLQMNSLKPEDTAVYYCAAAAWDPKGSRYDYWGQGTQVTVSS | low polyreactivity |

| Sequence | polyreactivity (PSR sort gate) |
| --- | --- |
| QVQLVESGGGLVQAGGSLRLSCAASGLTFAVYAMGVYRQAPGKEREVVAAINWSGGSTSYADSVKGRFTISRDNAKNTVYLQMNSLKPEDTAVYYCAAVPGSYSYWRVWYGYDYWGQGTQVTVSS | high polyreactivity |
| QVQLVESGGGLVQAGGSLRLSCAASGLTFAYYAMGWYRQAPGKERELVAAISWNGGRTYYADSVKGRFTISRDNAKNSVYLQMNSLKPEDSAVYYCAAQVTSSFYWGQGTQVTVSS | high polyreactivity |
| QVQLVESGGGLVQAGGSLRLSCAASGLTFAYYAMGWYRQAPGKERELVAAITSSGTSTYYADSVKGRFTISRDNAKNTVYLQMNSQKPEDTAVYYCNARVYGYRYTYRMDYWGQGTQVTVSS | high polyreactivity |
| QVQLVESGGGLVQAGGSLRLSCAASGLTFDGNTMGWYRQAPGKERELVAAISFDGGNTYADSVKGRFTISRDNAKNTVYLQMISLKPEDTAVYYDYWGQGNQVTVSS | low polyreactivity |
| QVQLVESGGGLVQAGGSLRLSCAASGLTFDKYTMGWYRQAPGKERELVARISTSGSRTYYADSVKGRFTISRDIAKNTVYLQMNSLKPEDTAVYYCNKDGWIRRRRGYDYWGQGTQVTVSS | high polyreactivity |
| QVQLVESGGGLVQAGGSLRLSCAASGLTFDVYTMGWYRQAPGKEREFVAGITSGGSTDYADSVKGRFTISRDNAKNTVYLQMNSLKPEDTAVYYCNKPFPYYPDGPNGYDYWGQGTQVTVSS | low polyreactivity |
| QVQLVESGGGLVQAGGSLRLSCAASGLTFDWYAMGWYRQAPGKERELVAAISWNGVSTDYADSVKGRFTISRDNAKYTVYLQMNRLKPEDTAVYYCAADPPWYLYVGFDYWGQGTQVNVSS | high polyreactivity |
| QVQLVESGGGLVQAGGSLRLSCAASGLTFDWYAMGWYRQAPGKERELVAAITSVGSTYYADSVKGRFTISRDNAKNTVYLQMNSLKPEDTAVYYCAVEGVMWSFWPYEYWGQGTQVTVSS | high polyreactivity |
| QVQLVESGGGLVQAGGSLRLSCAASGLTFDWYTMGWYRQAPGKERELVATINSGGSTDYADSVKGRFTISRDNAKNNVYLQMNSLKPEDTAVYYCNAEYGYSGVGDDYWGQGTQVTVSS | low polyreactivity |
| QVQLVESGGGLVQAGGSLRLSCAASGLTFDWYTMGWYRQAPGKERELVATINSGGSTDYADSVKRRFTISRDNAKNTVYLQMNSLKPEDTAVYYCAAQPFVIDGGYRGDYWGQGTQVTVSS | low polyreactivity |
| QVQLVESGGGLVQAGGSLRLSCAASGLTFDYYAMGWYRQAPGKERELVAAISASCSSTYYADSVKGRFTISRDNAKNTVYLQMNSLKPEDTAVYYCAAVTKSSVPGSRYDYWGQGTQVTVSS | high polyreactivity |
| QVQLVESGGGLVQAGGSLRLSCAASGLTFDYYAMGWYRQAPGKERELVAAITRRGGGTYYADSVKGRFTISRDNAKNTVYLQMNSLKPEDTAVYYCNADRRSWSALHRYDYWGQGTQVTVSS | high polyreactivity |
| QVQLVESGGGLVQAGGSLRLSCAASGLTFDYYAMGWYRQAPGKERELVAAITSSGGRTYYADSVKGRFTISRDNPNKTVYLQMNSLKPEDTAVYYCAADPYSVYGGDYWGQGTQVTVSS | low polyreactivity |
| QVQLVESGGGLVQAGGSLRLSCAASGLTFEKYAMGWYRQAPGKEREMVAAISQDGGSTYYADSVKGRFTISRDNAKNTVYLQMNSLKPEDTAVYYCAAEDPDSWLPWDLFYYWGQGTQVTVSS | low polyreactivity |
| QVQLVESGGGLVQAGGSLRLSCAASGLTFELYAMGWYRQAPGKERELVAAITWSGGRTYYADSVKGRFTISRDNAKNTVYLQMNSLKPEDTAVYYCAADVYPGYVGSQEYDYWGQGTQVTVSS | low polyreactivity |
| QVQLVESGGGLVQAGGSLRLSCAASGLTFEVYAMGWYRQAPGKERELVAAISSGGGSTYYADSVKGRFTISRDNAKYTVYLQMNSLKPEDSAVYYCNAVAKLYYWRYDYWGQGTQVTVSS | low polyreactivity |
| QVQLVESGGGLVQAGGSLRLSCAASGLTFEYYAMGWYRQAPGKERELVAAITSTGSTNYADSVKGRFTISRDNAKNTVYLQMNSLKPEDTAVYFCNAEKPEGSTLYDYDYWGQGTQVTVSS | low polyreactivity |
| QVQLVESGGGLVQAGGSLRLSCAASGLTFEYYTMGWYRQAPGIERELVAAITSSGGSTYYADSVKGRFTISRDNAKNTVYLQMISLKPEDTAVYYCNAYWTYEFPSYEYWGQGTQVTVSS | low polyreactivity |
| QVQLVESGGGLVQAGGSLRLSCAASGLTFEYYTMGWYRQAPGKERELVAAITSSGGSTYYADSVKGRFTISRDNAKNTVYLQMNSLKPEDTAVYYCAARWRHYFVWKSYDYWGQGTQVTVSS | low polyreactivity |
| QVQLVESGGGLVQAGGSLRLSCAASGLTFEYYTMGWYRQAPGKERELVAAITSSGGSTYYADSVKGRFTISRDNAKNTVYLQMNSLKPEDTAVYYCNAYWTYEFPSYDYWGQGTQVTVSS | low polyreactivity |
| QVQLVESGGGLVQAGGSLRLSCAASGLTFFAYPMGWYRQAPGKERELVAVITSSGGSTNYADSVKGRFTISRDTPKNTVYLQMNSLKPEDTAVYYCAAYIRYTLPTSRGFGYWGQGTQVTVSS | high polyreactivity |

Source: the nanobody polyreactivity screen of Harvey et al. (2022)
